How the values were obtained:
Format in all cases: cell-based, human
MU89 melanoma cells = assay: Tumor cell/T cell co-culture IL-2 ELISA (Melan-A/MART-1 specific TCR Jurkat line J-TCR-M1 as responder)
Excerpt: The assay relies on the use of an antigen-specific responder T cell line. […] The chosen TCR reacts specifically to a Melan-A/MART-1 decapeptide (26[…]35) presented by HLA-A2, with appropriate triggering of T cell activation. We then used a lentiviral vector system for transduction of this specific TCR into the J.RT3-T3.5 T cell line, a Jurkat cell derivative which fails to express endogenous surface TCR through a mutation in its beta chain.
We evaluated several candidate melanoma cell lines for the ability to stimulate the J-TCR-M1 cell line. Levels of Melan-A/MART-1 (determined by intracellular staining and flow cytometry) and corresponding levels of induced IL-2 (determined by coculture with J-TCR-M1 and IL-2 ELISA) were tested for different melanoma cell lines.
The 480 compounds were tested in six parallel 96 well plates. The first two columns (16 wells) of each plate were used for standards (8 wells), untreated controls (4 wells), and positive controls (4 wells). The other ten columns (80 wells) were used for testing compounds in separate wells. A100 μl aliquot containing 5×10^4 MU89 cells was added to wells that contained 0.1 μl of each test drug diluted in 50 μl of RPMI media. The plates were incubated with drug for 72 hours at 37° C. in a humidified incubator with 5% CO2. After 72 hours, each well received 2.5×10^4J-TCR-M1 cells in 50 μl medium, and then incubated a further 24 hours. At the conclusion of the 24 hour co-culture period, each plate was centrifuged to pellet the cells and 100 μl supernatant fluid was collected from each well and plated in a parallel 96 well flat bottom well for IL-2 ELISA assay.
Melanoma cells were treated with hits from the primary screen for three days prior to counting and plating for the coculture assay (cells were washed and resuspended in fresh medium that no longer contained the treatment agents during the co-culture). A100 μl volume of 5×10^5 cells/ml tumor cells were mixed with 50 μl of […] T cells in a 96-well V-bottom plate and incubated overnight (16-24 hours). Plates were centrifuged to pellet the cells and 100 μl of supernatant fluid was removed from each well for cytokine assay. To assess antigen-specific T cell responses, a final concentration of 3.33 μg/ml Melan-A/MART-1 peptide (26[…]35 (A27L from wild type)) was added to the co-culture.
The protocol for evaluation of the cytokine IL-2 was performed using a the BD OptEAI kit, human IL-2 ELISA set from BD Biosciences (San Diego, Calif.) following the manufacturer's recommendations. The absorbance 450 nm was read in a BioRad 3550 plate reader. A standard curve using known concentrations of IL-2 (from 500 to 8 pg/ml) was included in each ELISA plate. IL-2 levels for experimental samples (pg/ml) were calculated from the standard curve.
100 μl of 5×10^5 tumor cells/ml were mixed with 50 μl of T cells (at 5×10^5 cells/ml) in a 96-well V-bottom plate and incubated overnight (16-24 hours). Plates were centrifuged to pellet the cells and 120 μl of supernatant fluid was removed from each well for cytokine assay. To assess antigen-specific T cell responses, 3.33 μg/ml Melan-A/MART-1 peptide was added to the co-culture.
The protocols for evaluation of either IL-2 or IFN-gamma were similar, following the manufacturer's recommendations. A standard curve using known concentrations of each cytokine was included in each ELISA experiment. ELISA plates were coated with capture antibody and then washed with 1×PBS 0.5% Tween-20. Wells were blocked with 1×PBS 1% FBS for 1 hour and rewashed.

[1] = tested on: Melan-A/MART-1 promoter EGFP reporter cell line; assay: Melan-A/MART-1 promoter-driven EGFP reporter cell line, secondary screen of hits (FIG. 6); settings: over a dose range (FIG. 6)
Excerpt: FIG. 6 is a series of graphs showing EGFP detection of in cells treated with the indicated hits showing ability to upregulate a cell line containing a Melan-A/MART-1 promoter-driven EGFP reporter. Note that the x-axes (drug concentrations) and y-axes (EGFP fluorescent measurement) cover different ranges to best indicate the activities of individual compounds. Data from a single determination, representative of at least three confirmatory experiments, is shown.
The EGFP reporter driven by the Melan-A/MART-1 promoter represents one such orthogonal assay because it evaluates directly the effect of the compounds on Melan-A/MART-1 promoter activity independent of Melan-A/MART-1 protein expression. Compounds passing the other secondary screens, but failing this one, may affect antigen presentation by other mechanisms such as increasing the efficiency of antigen processing, enhancing MHC Class I levels, or by stabilizing the antigen/MHC complex.
As for the primary screen, 17-AAG and aphidicolin, had the largest impact on EGFP stimulation, inducing 3-fold and 5-fold increases respectively. […]
(§1) Cells were fixed with 1% formaldehyde, permeabilized with 0.1% saponin, stained with monoclonal antibodies to melanocyte antigens. […] The level of EGFP was determined by flow cytometry of unfixed cells that were washed and resuspended in 1×PBS.

melanomas and gliomas = assay: Intracellular staining for Melan-A/MART-1 and gp100, melanomas and gliomas exposed to hits (Table 10); settings: in most cell lines; three days (Table 10)
Description: FIG. 7 is a series of graphs showing intracellular staining and flow histograms used to generate data for Table 10. All cells were stained with an antibody to gp100. Thin line represents untreated cells, bold line represents cells treated for three days with 17-AAG (1 μg/ml). Numbers represent geometric mean of flow histograms.
A further orthogonal secondary screen is the measurement of Melan-A/MART-1 and gp100 in additional melanoma cell lines and gliomas in response to the primary hit candidates. […] If the compounds of interest increase antigen levels in multiple melanoma cell lines and two gliomas, the effects of the compounds are clearly not limited to a single melanoma cell type.
As for the primary screen, 17-AAG and aphidicolin, had the largest impact on EGFP stimulation, inducing 3-fold and 5-fold increases respectively. Four additional compounds: damnacanthal, flunarizine, OBAA, and dantrolene stimulated EGFP more than 2-fold. We then tested the ability of the hit compounds to induce antigen increases in a more diverse set of tumors including melanomas and gliomas. […]
as §1

MU89 melanoma cell line = assay: Antibody staining and flow cytometry (intracellular Melan-A/MART-1, gp100, TRP-2; surface MHC Class I/II)
Description: (§2) Cells were fixed with 1% formaldehyde, permeabilized with 0.1% saponin, stained with monoclonal antibodies to melanocyte antigens. Antibodies were obtained with specificity for: MART-1 from Vector Labs (Burlingame, Calif.); gp100 HMB45 from DakoCytomation (Carpinteria, Calif.) and then visualized with goat anti-mouse FITC-conjugated secondary antibody from Invitrogen (Fredrick, Md.). The level of EGFP was determined by flow cytometry of unfixed cells that were washed and resuspended in 1×PBS.
(§3) Cells were plated at a density of 1×10^5 in 1 ml of medium in a 24-well plate and cultured for varying times as indicated in results. […] After incubation, cells were collected by trypsinization and then evaluated by flow cytometry.
(§4) Intracellular staining and flow cytometric analyses of cytoplasmic Melan-A/MART-1, and gp100 expression were performed as described previously. Cells were fixed with 1% formaldehyde, permeabilized with 0.1% saponin, stained with monoclonal antibodies to melanocyte antigens. Antibodies were obtained with specificity for: Melan-A/MART-1 from Vector Labs (Burlingame, Calif.); gp100/HMB45 from DakoCytomation (Carpinteria, Calif.) and then visualized with goat anti-mouse FITC-conjugated secondary antibody from Invitrogen (Frederick, Md.). The level of EGFP was determined by flow cytometry of unfixed cells washed and resuspended in 1×PBS. Surface staining of MHC Class I was carried out using the antibody W6/32 on cells harvested with Cell Stripper from MediaTech Inc. (Manassas, Va.) and carried out on ice.
(§5) Cell were seeded at 1×10^6 cells in a T25 flask with 10 ml of media for the 4 day IFN-beta pre-treatments. Cells were then harvested and plated in 24 well plate at 1×10^5 cells per well in 1 ml of media for 3 day treatments.
(§6) For surface staining of HLA Class I and II antigens, cells were harvested using CellStripper™ from Mediatech (Manassas, Va.). All staining steps were performed on ice. Following a first incubation with antibody to Class I (W6/32) or Class II (L243) for 30 minutes. Stained cells were washed twice with cold PBS and then stained with a goat anti-mouse FITC secondary antibody to allow for quantitative analysis by flow cytometry. For evaluation of cytoplasmic antigens, including Melan-A/MART-1 and gp100, cells were first fixed in paraformaldehyde and permeabilized with saponin as previously described. Staining for cytoplasmic antigens was carried out at room temperature (22° C.).

[2] = tested on: U-118 MG glioma cell line; assay: Antibody staining and flow cytometry (intracellular gp100; surface MHC Class I/II)
Description: as §2, §3, §4, §5, §6

[3] = tested on: HeLa cervical carcinoma cells; assay: Surface antibody staining and flow cytometry (MHC Class I/II)
Description: as §4, §5, §6

[4] = tested on: MCF-7 breast cancer cells; assay: as above; settings: MCF-7; single agent
Description: as §4, §5, §6

[5] = tested on: Raji B cell lymphoma cells; assay: as above
Description: as §4, §5, §6

U2-OS osteosarcoma cells = assay: as above; settings: U2-OS
Description: as §4, §5, §6

[6] = tested on: EBV-19 B cell lymphoma cells; assay: as above; settings: three days, IFN-β 5000 Units/ml, IFN-γ 100 ng/ml
Description: as §4, §6

[7] = tested on: Jurkat T cell lymphoma cells; assay: as above
Description: as §4, §6

tumor cell lines = assay: MHC Class I and Class II surface staining, statements over a panel of tumor cell lines; settings: HeLa, MCF-7, U2-OS, MU-89, U118, Jurkat, Raji (Table 19)
Description: as §6

[8] = MU89, three days, IFN-β 5000 Units/ml, IFN-γ 100 ng/ml, PU-H71 0.3 mg/ml
[9] = three days, IFN-β 5000 Units/ml, IFN-γ 100 ng/ml, PU-H71 0.3 mg/ml

C[C@@]1(CO)[C@H](O)CC[C@@]2(C)[C@H]1CC[C@H]1C[C@@H]3C[C@@]12CC[C@]3(O)CO [Aphidicolin]
Fold increase (IL-2 relative to untreated controls), hits from pilot screen (MU89 melanoma cells; about 10 μM, 72 hours treatment, then 24 hours co-culture): 2.0 fold | IL-2 stimulation in repeat of the tumor T cell co-culture IL-2 ELISA (MU89 melanoma cells; hits re-tested over a wider dose range (FIG. 5)): ~5 fold | EGFP stimulation (Melan-A/MART-1 promoter reporter) [1]: 5 fold | Protein increase (Melan-A/MART-1, gp100 intracellular staining) (melanomas and gliomas): inducing high levels of protein increases at low concentrations

B1: IFN-γ: IFN-γ-1b stock solution 100 μg/ml in PBS; SEQ ID NO: 5 (protein)
chain: MQDPYVKEAENLKKYFNAGHSDVADNGTLFLGILKNWKEESDRKIMQSQIVSFYFKLFKNFKDDQSIQKSVETIKEDMNVKFFNSNKKKRDDFEKLTNYSVTDLNVQRKAIHELIQVMAELPPAAETGKRKRSQMLFRGR
modifications: IFN-gamma-1b
MHC Class I, geometric mean of surface staining (W6/32) (MU89 melanoma cell line; [8]): 213 | MHC Class II, geometric mean of surface staining (L2443) (MU89 melanoma cell line; [8]): 139 | L243 (MHC Class II surface staining) (MU89 melanoma cell line; MU-89, single agent): 57.6 | W6/32 (MHC Class I surface staining) (MU89 melanoma cell line; MU-89, single agent): 138.0 | MHC Class II, geometric mean of surface staining (L2443) ([2]; Giloma-118, three days, IFN-β 5000 Units/ml, IFN-γ 100 ng/ml, PU-H71 0.3 mg/ml): 40 | MHC Class I, geometric mean of surface staining (W6/32) ([2]; Giloma-118, three days, IFN-β 5000 Units/ml, IFN-γ 100 ng/ml, PU-H71 0.3): 137 | L243 (MHC Class II surface staining) ([2]; U118, single agent): 65.3 | W6/32 (MHC Class I surface staining) ([2]; U118, single agent): 250.5 | L243 (MHC Class II surface staining) ([3]; HELA, single agent): 86.0 | W6/32 (MHC Class I surface staining) ([3]; HELA, single agent): 464.8 | MHC Class II, geometric mean of surface staining (L2443) ([3]; HeLa, three days, IFN-β 5000 Units/ml, IFN-γ 100 ng/ml, PU-H71 0.3 mg/ml): 214 | MHC Class I, geometric mean of surface staining (W6/32) ([3]; HeLa, three days, IFN-β 5000 Units/ml, IFN-γ 100 ng/ml, PU-H71 0.3): 637 | L243 (MHC Class II surface staining) [4]: 59.1 | W6/32 (MHC Class I surface staining) [4]: 478.5 | L243 (MHC Class II surface staining) ([5]; single agent): 339.3 | W6/32 (MHC Class I surface staining) ([5]; single agent): 117 | MHC Class I, geometric mean of surface staining (W6/32) [5, 9]: 117 | MHC Class II, geometric mean of surface staining (L2443) [5, 9]: 142 | L243 (MHC Class II surface staining) (U2-OS osteosarcoma cells; single agent): 87.6 | W6/32 (MHC Class I surface staining) (U2-OS osteosarcoma cells; single agent): 293.2 | MHC Class I, geometric mean of surface staining (W6/32) (U2-OS osteosarcoma cells; [9]): 284 | MHC Class II, geometric mean of surface staining (L2443) (U2-OS osteosarcoma cells; [9]): 237 | MHC Class II, geometric mean of surface staining (L2443) ([6]; PU-H71 0.3 mg/ml): 118 | MHC Class I, geometric mean of surface staining (W6/32) ([6]; PU-H71 0.3): 277 | L243 (MHC Class II surface staining) ([7]; single agent): 1.1 | W6/32 (MHC Class I surface staining) ([7]; single agent): 86.5 | MHC Class I, geometric mean of surface staining (W6/32) ([7]; three days, IFN-β 5000 Units/ml, IFN-γ 100 ng/ml, PU-H71 0.3 μg/ml): 87 | MHC Class II, geometric mean of surface staining (L2443) [7, 9]: 1 | Class I MHC expression over the tumor panel (tumor cell lines): induce significant increases | Class II MHC expression over the tumor panel (tumor cell lines): induced significant Class II

Reference: patent US20140335050A1, “METHODS, COMPOSITIONS, AND KITS FOR THE TREATMENT OF CANCER” (The General Hospital Corporation, priority 2011, published 2014)
